Measured values published in patent US20140112915A1 (Novartis, published 2014).
Like-named read-outs stand apart in the source and are kept apart here.

T1: Recombinant human IL-18 (human, UniProt Q14116 37-193)
T1 sequence: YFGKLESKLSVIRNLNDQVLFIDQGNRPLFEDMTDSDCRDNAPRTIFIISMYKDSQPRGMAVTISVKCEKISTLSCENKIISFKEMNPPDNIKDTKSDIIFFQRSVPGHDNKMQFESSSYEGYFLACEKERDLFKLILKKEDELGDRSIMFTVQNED

T2: Recombinant cynomolgus IL-18 (cynomolgus monkey, UniProt Q14116 37-193 (human entry))
T2 chain: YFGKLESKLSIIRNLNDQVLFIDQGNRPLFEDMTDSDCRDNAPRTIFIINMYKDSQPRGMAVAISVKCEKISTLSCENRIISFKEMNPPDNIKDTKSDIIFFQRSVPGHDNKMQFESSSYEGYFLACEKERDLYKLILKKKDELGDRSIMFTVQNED

T3: Native human IL-18 (human, UniProt Q14116 37-193)
T3 sequence: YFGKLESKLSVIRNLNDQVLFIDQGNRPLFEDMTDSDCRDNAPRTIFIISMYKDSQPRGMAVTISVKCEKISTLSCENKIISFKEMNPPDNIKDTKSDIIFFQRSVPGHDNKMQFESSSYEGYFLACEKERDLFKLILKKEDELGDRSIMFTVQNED

T4: IL-18/IL-18BP complex (human, UniProt O95998 31-194, biotinylated in the first ELISA setup, unbiotinylated in the second)
T4 construct: also called biotinylated IL-18/IL18-BP complex; not shown: human IgG1 Fc tag
T4 sequence 1: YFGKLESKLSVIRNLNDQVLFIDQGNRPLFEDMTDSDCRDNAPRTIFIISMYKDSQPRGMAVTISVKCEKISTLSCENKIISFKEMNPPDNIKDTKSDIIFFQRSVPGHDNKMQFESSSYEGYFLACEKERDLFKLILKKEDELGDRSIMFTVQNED
T4 sequence 2: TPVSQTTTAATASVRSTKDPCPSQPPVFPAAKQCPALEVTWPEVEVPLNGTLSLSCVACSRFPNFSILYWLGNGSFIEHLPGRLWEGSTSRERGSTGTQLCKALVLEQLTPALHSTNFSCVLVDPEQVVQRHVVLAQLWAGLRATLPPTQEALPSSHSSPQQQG


Experiments:
Recombinant human IL-18 [1] = target: T1, Recombinant human IL-18; experiment: cell-based or functional assay
[2] = target: T2, Recombinant cynomolgus IL-18; experiment: cell-based or functional assay
Native human IL-18 [3] = target: T3, Native human IL-18; experiment: cell-based or functional assay
Recombinant human IL-18 [4] = target: T1, Recombinant human IL-18; experiment: solution equilibrium titration (SET), ECL detection
IL-18/IL-18BP complex = target: T4, IL-18/IL-18BP complex; experiment: ELISA, first set-up: antibody titrated and incubated with the biotinylated human IL-18/rhIL-18BP-Fc complex, captured on NeutrAvidin plate, AP-labelled anti-human F(ab)2, AttoPhos fluorescence [A]
Recombinant human IL-18 [5] = target: T1, Recombinant human IL-18; experiment: cell-based or functional assay; remark: listed apart in the source
Native human IL-18 [6] = target: T3, Native human IL-18; experiment: cell-based or functional assay; remark: listed apart in the source
Recombinant human IL-18 [7] = target: T1, Recombinant human IL-18; experiment: cell-based or functional assay; remark: listed apart in the source
Native human IL-18 [8] = target: T3, Native human IL-18; experiment: cell-based or functional assay; remark: listed apart in the source
[9] = target: T2, Recombinant cynomolgus IL-18; experiment: ratio of SET KD values, cynomolgus against human IL-18
Recombinant human IL-18 [10] = target: T1, Recombinant human IL-18; experiment: solution equilibrium titration (SET), ECL detection; human IL-18; unbracketed value, column Hu IL-18
[11] = target: T2, Recombinant cynomolgus IL-18; experiment: solution equilibrium titration (SET), ECL detection; value in brackets = cynomolgus IL-18; bracketed value

Row | Binder | IC50, inhibition of IFN-γ release, KG-1 cells, Hu IL-18 (1 nM) (Recombinant human IL-18 [1]) [nM] | IC50, inhibition of IFN-γ release, PBMC, Hu IL-18 (recombinant) (Recombinant human IL-18 [1]) [nM] | IC50, inhibition of IFN-γ release, KG-1 cells, Cyno IL-18 [2] [nM] | IC50, inhibition of IFN-γ release, PBMC, Native IL-18 (LPS/IL-12) (Native human IL-18 [3]) [nM] | Kd (Recombinant human IL-18 [4]) [nM] | binding result (IL-18/IL-18BP complex) | IC50, inhibition of IFN-γ release, KG-1 cells, Hu IL-18 (1 nM) (Recombinant human IL-18 [5]) [nM] | IC50, inhibition of IFN-γ release, PBMC, Native IL-18 (LPS/IL-12) (Native human IL-18 [6]) [nM] | IC50, inhibition of IFN-γ release, human whole blood, recombinant human IL-18 (7 nM) (Recombinant human IL-18 [7]) [nM] | IC50, inhibition of IFN-γ release, human whole blood, LPS/IL-12 (native IL-18) (Native human IL-18 [8]) [nM] | fold weaker than against human IL-18 [9] [fold] | Kd (Recombinant human IL-18 [10]) [pM] | Kd [11] [nM]
1 | MOR08775 (antibody, human IgG1, lambda, V domains shown, also called MOR8775) VH: QVQLVQSGAEVKKPGSSVKVSCKASGGTFNSYAISWVRQAPGQGLEWMGGIIPIYGTANYAQKFQGRVTITADESTSTAYMELSSLRSEDTAVYYCARAAYHPLVFDNWGQGTLVTVSS VL: DIVLTQPPSVSGAPGQRVTISCSGSSSNIGNHYVNWYQQLPGTAPKLLIYRNNHRPSGVPDRFSGSKSGTSASLAITGLQSEDEADYYCQSWDYSGFSTVFGGGTKLTVLG | 68 | 9.2 | 22 | 0.7 | 0.065 | no binding (tested: about 800 nM) |  |  |  |  |  |  | 
2 | MOR9464_N30K (antibody, human IgG1, lambda, L234A L235A, V domains shown, also called MOR09464_N30K) VH: EVQLVQSGAEVKKPGSSVKVSCKASGGTFKSYAISWVRQAPGQGLEWMGNIIPMTGQTYYAQKFQGRVTITADESTSTAYMELSSLRSEDTAVYYCARAAYHPLVFDNWGQGTLVTVSS VL: DIVLTQPPSVSGAPGQRVTISCSGSSSNIGNHYVNWYQQLPGTAPKLLIYRNNHRPSGVPDRFSGSKSGTSASLAITGLQSEDEADYYCQSWDYSGFSTVFGGGTKLTVLG | 0.36 |  | 4.7 | 0.2 |  |  | 0.36 | 0.2 | 8.62 | 17.1 | 10 | 2 | 0.02
3 | MOR08776 (antibody, human IgG1, lambda, V domains shown, also called MOR8776) VH: QVQLQESGPGLVKPGETLSLTCTVSGGSISTGSYYWNWIRQAPGKGLEWIGEINHMGITYYNPSLKGRVTISVDTSKNQFSLKLSSVTAEDTAVYYCARTTRYWMSHILAYGMDYWGQGTLVTVSS VL: DIVLTQPPSVSGAPGQRVTISCSGSSSNIGNHYVSWYQQLPGTAPKLLIYANTKRPSGVPDRFSGSKSGTSASLAITGLQSEDEADYYCSSYDGSQSIVFGGGTKLTVLG | 18 | 50.8 |  | 5.9 | 0.038 | no binding (tested: about 800 nM) |  |  |  |  |  |  | 
